Laboratory results published in the supplement of paper PMC5998384.

Experiments:
HeLa Kyoto [1] = test: solubility change mitosis vs G1/S (difference of NP-40 vs SDS log2 ratios) (log2 ratio difference); higher = more soluble in mitosis
HeLa Kyoto [2] = test: solubility in G1/S (NP-40 vs SDS abundance) (log2 ratio); higher = more soluble; settings: cell cycle stage: G1/S
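Wherever solubility change mitosis vs G1/S (difference of NP-40 vs SDS log2 ratios) is given: synchronized HeLa Kyoto cells (double thymidine block for G1/S, nocodazole release for mitosis), protein amounts in NP-40 versus SDS lysates quantified by mass spectrometry, three biological replicates.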
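Wherever solubility in G1/S (NP-40 vs SDS abundance) is given: HeLa Kyoto cells arrested at G1/S by double thymidine block, proteins quantified by TMT10plex mass spectrometry in mild NP-40 versus SDS extracts, three biological replicates.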

CLK4, sequence (chain, as listed by the source): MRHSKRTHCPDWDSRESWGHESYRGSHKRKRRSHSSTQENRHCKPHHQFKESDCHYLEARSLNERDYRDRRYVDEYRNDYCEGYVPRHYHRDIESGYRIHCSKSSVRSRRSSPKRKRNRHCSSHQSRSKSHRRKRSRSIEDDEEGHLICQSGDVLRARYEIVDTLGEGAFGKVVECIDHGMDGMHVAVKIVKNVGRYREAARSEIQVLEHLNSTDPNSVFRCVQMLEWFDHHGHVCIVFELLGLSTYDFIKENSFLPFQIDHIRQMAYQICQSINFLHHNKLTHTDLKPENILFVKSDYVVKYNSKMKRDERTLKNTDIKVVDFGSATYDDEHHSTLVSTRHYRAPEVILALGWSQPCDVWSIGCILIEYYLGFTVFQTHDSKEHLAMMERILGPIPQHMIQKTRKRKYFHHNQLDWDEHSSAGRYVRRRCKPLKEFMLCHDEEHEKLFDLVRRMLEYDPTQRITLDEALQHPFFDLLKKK

Row | Substance | solubility change mitosis (log2) (HeLa Kyoto [1]) | solubility in G1/S (log2) (HeLa Kyoto [2])
1 | MLRSTGFFRAIDCPYWSGAPGGPCRRPYCHFRHRGARGSGAPGDGGEAPPAAGLGYDPYNPELPKPPAQRENGTLGLGEEPRPDVLELELVNQAIEAVRSEVELEQRRYRELLETTREHRSAEAPALAPRGPNASPTVGPDEDAFPLAFDYSPGSHGLLSPDAGYQPTPLAAPAEPGSKYSLASLDRGQGRGGGGGGALEYVPKAVSQPRRHSRPVPSGKYVVDNSRPPTDLEYDPLSNYSARHLSRASSRDERAAKRPRGSRGSEPYTPAPKKLCDPFGSCDARFSDSEDEAATVPGNEPTTASTPKARADPEIKATGQPPSKEGLEAEGGGLRETKETAVQCDVGDLQPPPAKPASPAQVQSSQDGGCPKEGKPKKKKTGAPPAPSCKDGAQGKDKTKDKGRGRPVEKPRADKKGPQASSPRRKAERPEGTKKKPSSATPVATSGKGRPDRPARRPSPTSGDSRPAAGRGPPRPLQLPDRKSTKAPSGKLVERKARSLDEGASQDAPKLKKRALSHADLFGDESEDEAAGPGVPSVWPSALPSLSSDSDSDSDSSLGFPEAQGPPKRLKASPPPSPAPSSSSSSSSSTSSAGADVDYSALEKEVDFDSDPMEECLRIFNESTSVKTEDRGRLARQPPKEEKSEEKGLSGLTTLFPGQKRRISHLSKQGQEVEPPRRGPAVPPARPPTAQEVCYLRAQQAQRASASLLQAPARLAEKSPSVHISAPGEKRRIAHIPNPRLAAAPTGAKRTLAASGSQSSNGPEPGGQQLKTRTLSGMASKTTTTIIPKRIAHSPSLQSLKKPIIPKEFGGKVPTVIRQRYLNLFIEECLKFCTSNQEAIEKALNEEKVAYDRSPSKNIYLNVAVNTLKKLRGLAPSAVPGLSKTSGRRVVSHEVVLGGRLAAKTSFSLSRPSSPRVEDLKGAALYSRLREYLLTQDQLKENGYPFPHPERPGGAIIFTAEEKRPKDSSCRTCCRCGTEYLVSSSGRCIRDEECYYHWGRLRRNRVAGGWETQYMCCSAAAGSVGCQVAKQHVQDGRKERLEGFVKTFEKELSGDTHPGIYALDCEMSYTTYGLELTRVTVVDTDVHVVYDTFVKPDNEIVDYNTRFSGVTEADLADTSVTLRDVQAVLLSMFSADTILIGHSLESDLLALKVIHSTVVDTSVLFPHRLGLPYKRSLRNLMADYLRQIIQDNVDGHSSSEDAGACMHLVIWKVREDAKTKR [REXO1] | -0.0256 | -0.201
2 | CLK4 | 0.508 | -1.44
3 | MTSVTRSEIIDEKGPVMSKTHDHQLESSLSPVEVFAKTSASLEMNQGVSEERIHLGSSPKKGGNCDLSHQERLQSKSLHLSPQEQSASYQDRRQSWRRASMKETNRRKSLHPIHQGITELSRSISVDLAESKRLGCLLLSSFQFSIQKLEPFLRDTKGFSLESFRAKASSLSEELKHFADGLETDGTLQKCFEDSNGKASDFSLEASVAEMKEYITKFSLERQTWDQLLLHYQQEAKEILSRGSTEAKITEVKVEPMTYLGSSQNEVLNTKPDYQKILQNQSKVFDCMELVMDELQGSVKQLQAFMDESTQCFQKVSVQLGKRSMQQLDPSPARKLLKLQLQNPPAIHGSGSGSCQ [DSN1] | -0.12 | 0.0805
4 | MASDGARKQFWKRSNSKLPGSIQHVYGAQHPPFDPLLHGTLLRSTAKMPTTPVKAKRVSTFQEFESNTSDAWDAGEDDDELLAMAAESLNSEVVMETANRVLRNHSQRQGRPTLQEGPGLQQKPRPEAEPPSPPSGDLRLVKSVSESHTSCPAESASDAAPLQRSQSLPHSATVTLGGTSDPSTLSSSALSEREASRLDKFKQLLAGPNTDLEELRRLSWSGIPKPVRPMTWKLLSGYLPANVDRRPATLQRKQKEYFAFIEHYYDSRNDEVHQDTYRQIHIDIPRMSPEALILQPKVTEIFERILFIWAIRHPASGYVQGINDLVTPFFVVFICEYIEAEEVDTVDVSGVPAEVLCNIEADTYWCMSKLLDGIQDNYTFAQPGIQMKVKMLEELVSRIDEQVHRHLDQHEVRYLQFAFRWMNNLLMREVPLRCTIRLWDTYQSEPDGFSHFHLYVCAAFLVRWRKEILEEKDFQELLLFLQNLPTAHWDDEDISLLLAEAYRLKFAFADAPNHYKK [TBC1D22A] | -0.253 | 0.31
5 | MDDDLMLALRLQEEWNLQEAERDHAQESLSLVDASWELVDPTPDLQALFVQFNDQFFWGQLEAVEVKWSVRMTLCAGICSYEGKGGMCSIRLSEPLLKLRPRKDLVETLLHEMIHAYLFVTNNDKDREGHGPEFCKHMHRINSLTGANITVYHTFHDEVDEYRRHWWRCNGPCQHRPPYYGYVKRATNREPSAHDYWWAEHQKTCGGTYIKIKEPENYSKKGKGKAKLGKEPVLAAENKDKPNRGEAQLVIPFSGKGYVLGETSNLPSPGKLITSHAINKTQDLLNQNHSANAVRPNSKIKVKFEQNGSSKNSHLVSPAVSNSHQNVLSNYFPRVSFANQKAFRGVNGSPRISVTVGNIPKNSVSSSSQRRVSSSKISLRNSSKVTESASVMPSQDVSGSEDTFPNKRPRLEDKTVFDNFFIKKEQIKSSGNDPKYSTTTAQNSSSSSSQSKMVNCPVCQNEVLESQINEHLDWCLEGDSIKVKSEESL [SPRTN] | 0.0242 | -0.206
6 | MASPSKAVIVPGNGGGDVTTHGWYGWVKKELEKIPGFQCLAKNMPDPITARESIWLPFMETELHCDEKTIIIGHSSGAIAAMRYAETHRVYAIVLVSAYTSDLGDENERASGYFTRPWQWEKIKANCPYIVQFGSTDDPFLPWKEQQEVADRLETKLHKFTDCGHFQNTEFHELITVVKSLLKVPA [RBBP9] | 0.00166 | 0.42
7 | MEKYHVLEMIGEGSFGRVYKGRRKYSAQVVALKFIPKLGRSEKELRNLQREIEIMRGLRHPNIVHMLDSFETDKEVVVVTDYAEGELFQILEDDGKLPEDQVQAIAAQLVSALYYLHSHRILHRDMKPQNILLAKGGGIKLCDFGFARAMSTNTMVLTSIKGTPLYMSPELVEERPYDHTADLWSVGCILYELAVGTPPFYATSIFQLVSLILKDPVRWPSTISPCFKNFLQGLLTKDPRQRLSWPDLLYHPFIAGHVTIITEPAGPDLGTPFTSRLPPELQVLKDEQAHRLAPKGNQSRILTQAYKRMAEEAMQKKHQNTGPALEQEDKTSKVAPGTAPLPRLGATPQESSLLAGILASELKSSWAKSGTGEVPSAPRENRTTPDCERAFPEERPEVLGQRSTDVVDLENEEPDSDNEWQHLLETTEPVPIQLKAPLTLLCNPDFCQRIQSQLHEAGGQILKGILEGASHILPAFRVLSSLLSSCSDSVALYSFCREAGLPGLLLSLLRHSQESNSLQQQSWYGTFLQDLMAVIQAYFACTFNLERSQTSDSLQVFQEAANLFLDLLGKLLAQPDDSEQTLRRDSLMCFTVLCEAMDGNSRAISKAFYSSLLTTQQVVLDGLLHGLTVPQLPVHTPQGAPQVSQPLREQSEDIPGAISSALAAICTAPVGLPDCWDAKEQVCWHLANQLTEDSSQLRPSLISGLQHPILCLHLLKVLYSCCLVSEGLCRLLGQEPLALESLFMLIQGKVKVVDWEESTEVTLYFLSLLVFRLQNLPCGMEKLGSDVATLFTHSHVVSLVSAAACLLGQLGQQGVTFDLQPMEWMAAATHALSAPAEVRLTPPGSCGFYDGLLILLLQLLTEQGKASLIRDMSSSEMWTVLWHRFSMVLRLPEEASAQEGELSLSSPPSPEPDWTLISPQGMAALLSLAMATFTQEPQLCLSCLSQHGSILMSILKHLLCPSFLNQLRQAPHGSEFLPVVVLSVCQLLCFPFALDMDADLLIGVLADLRDSEVAAHLLQVCCYHLPLMQVELPISLLTRLALMDPTSLNQFVNTVSASPRTIVSFLSVALLSDQPLLTSDLLSLLAHTARVLSPSHLSFIQELLAGSDESYRPLRSLLGHPENSVRAHTYRLLGHLLQHSMALRGALQSQSGLLSLLLLGLGDKDPVVRCSASFAVGNAAYQAGPLGPALAAAVPSMTQLLGDPQAGIRRNVASALGNLGPEGLGEELLQCEVPQRLLEMACGDPQPNVKEAALIALRSLQQEPGIHQVLVSLGASEKLSLLSLGNQSLPHSSPRPASAKHCRKLIHLLRPAHSM [STK36] | 0.092 | -0.178
8 | MAQEKMELDLEPDTSYGGTLRRSSSAPLIHGLSDLSQVFQPYTLRTRRNSTTIMSRHSLEEGLDMVNRETAHEREMQTAMQISQSWDESLSLSDSDFDKPEKLYSPKRIDFTPVSPAPSPTRGFGKMFVSSSGLPPSPVPSPRRFSRRSQSPVKCIRPSVLGPLKRKGEMETESQPKRLFQGTTNMLSPDAAQLSDLSSCSDILDGSSSSSGLSSDPLAKGSATAESPVACSNSCSSFILMDDLSPK [FAM122B] | -0.79 | 1.18
